Source: PMC4928626

How the values were obtained:
[1] = molecular target: aerobactin synthetase IucA from hypervirulent Klebsiella pneumoniae hvKP1 (Klebsiella pneumoniae hvKP1 (hypervirulent pathotype)); assay: SAXS
[2] = molecular target: aerobactin synthetase IucA from hypervirulent Klebsiella pneumoniae hvKP1 (Klebsiella pneumoniae hvKP1 (hypervirulent pathotype)); assay: SEC
[3] = molecular target: aerobactin synthetase IucA from hypervirulent Klebsiella pneumoniae hvKP1 (Klebsiella pneumoniae hvKP1 (hypervirulent pathotype)); assay: native gel or EMSA

Measured: stoichiometry N

aerobactin synthetase IucA from hypervirulent Klebsiella pneumoniae hvKP1 (from UniProt A0ACD7U9R1 1-596) (enzyme)
4: all assays above
